In patent publication US20100022453A1 (UNIVERSITY OF ROCHESTER, published 2010):
Each block holds one binder with its values, some of them ahead of it.

B1: rat NgR1 (Nogo-66 receptor), full-length, expressed on cells (receptor)
chain: CPGACVCYNEPKVTTSCPQQGLQAVPTGIPASSQRIFLHGNRISYVPAASFQSCRNLTILWLHSNALAGIDAAAFTGLTLLEQLDLSDNAQLRVVDPTTFRGLGHLHTLHLDRCGLQELGPGLFRGLAALQYLYLQDNNLQALPDNTFRDLGNLTHLFLHGNRIPSVPEHAFRGLHSLDRLLLHQNHVARVHPHAFRDLGRLMTLYLFANNLSMLPAEVLVPLRSLQYLRLNDNPWVCDCRARPLWAWLQKFRGSSSEVPCNLPQRLAGRDLKRLAASDLEGCAVASGPFRPFQTNQLTDEELLGLPKCCQPDAADKASVLEPGRPASAGNALKGRVPPGDTPPGNGSGPRHINDSPFGTLPGSAEPPLTALRPGGSEPPGLPTTGPRRRPGCSRKNRTRSHCRLGQAGSGSSGTGDAEGS
notes: also called Nogo receptor NgR1; NgR1 in COS cells
B2: rat NgR2, full-length, expressed on COS-7 cells (receptor)
chain: CPMLCTCYSSPPTVSCQANNFSSVPLSLPPSTQRLFLQNNLIRSLRPGTFGPNLLTLWLFSNNLSTIYPGTFRHLQALEELDLGDNRHLRSLEPDTFQGLERLQSLHLYRCQLSSLPGNIFRGLVSLQYLYLQENSLLHLQDDLFADLANLSHLFLHGNRLRLLTEHVFRGLGSLDRLLLHGNRLQGVHRAAFHGLSRLTILYLFNNSLASLPGEALADLPALEFLRLNANPWACDCRARPLWAWFQRARVSSSDVTCATPPERQGRDLRTLRDTDFQACPPPTPTRPGSRARGNSSSNHLYGVAEAGAPPADPSTLYRDLPAEDSRGRQGGDAPTEDDYWGGYGGEDQRGEQTCPGAAC
notes: also called NgR2 in COS cells

Assays:
[1] = molecular target: T1, AP-sNgR1^CT+stalk (Phe278-Glu445) (human; rat); assay: AP-fusion protein binding to transfected COS-7 cells; (-) = no binding above background
T1 construct: Expressed in HEK293T cells and used as conditioned supernatant

AP-FGF9 (mouse) [2] = molecular target: T2, AP-FGF9 (mouse) (human; mouse, UniProt P54130 4-208); assay: AP-ligand binding to NgR1 on COS-7 cells
Procedure: (§1) Techniques for ligand binding to NgR1 on COS cells is described in detail in Venkatesh et al. (2005) Journal of Neuroscience 25:808-22, which is incorporated herein by reference in its entirety at least for the methods taught therein. Briefly, receptor constructs were expressed transiently in COS-7 cells in 24-well plates coated with poly-D-lysine (PDL; 50 μg/ml), using Lipofectamine 2000. At 24 h after transfection the cells were rinsed and incubated for 75 min at ambient temperature with alkaline phosphatase tagged FGF1, FGF2, FGF4, FGF8, FGF9, and FGF21. To monitor bound ligand, plates were developed with NBT/BCIP substrate; the color reaction was stopped by two rinses in PBS. For quantification of ligand binding the cells were processed as described above; after ligand incubation the cells were rinsed in HBHA and lysed in 20 mM Tris, pH 8.0, 0.1% Triton X-100. The lysates were incubated at 65° C. for 60 min and spun at 10,000×g for 5 min. The relative AP activity in supernatants was normalized to cell surface receptor expression, using anti-myc (1:1000), anti-NgR1 (1:1000), anti-NgR2 (1:1000), or anti-NgR3 (1:200) antibodies, as described previously (Giger et al., Neuron 21:1079-92, 1998). Scatchard plot analysis was performed analogous to a previous study (Kolodkin et al., Cell 90:753-62, 1997).

AP-FGF9 (mouse) [3] = molecular target: T2, AP-FGF9 (mouse); assay: AP-ligand binding to NgR2 on COS-7 cells
Procedure: as §1

[4] = molecular target: B1; assay: AP-tagged ligand binding to NgR1 on COS cells
Procedure: as §1

[5] = molecular target: B1; assay: Scatchard plot analysis of AP-ligand binding to NgR1 on COS-7 cells
Procedure: as §1, with “The relative AP activity in supernatants was normalized to cell surface receptor expression, using anti-myc (1:1000), anti-NgR1 (1:1000), anti-NgR2 (1:1000), or anti-NgR3 (1:200) antibodies, as described previously (Giger et al., Neuron 21:1079-92, 1998). Scatchard plot analysis was performed analogous to a previous study (Kolodkin et al., Cell 90:753-62, 1997).” left out
To address whether NgR1 interacts directly with FGF2, affinity precipitation experiments were performed. […] The complexes of ¹²⁵I-FGF2:NgR1-Fc and ¹²⁵I-FGF2:FGFR1-Fc run at apparent molecular weights of 220- and 250-kDa and higher molecular weight complexes containing ¹²⁵I-FGF2 are detected as well (FIG. 3C).

[6] = molecular target: B2; assay: AP-ligand binding to NgR2 on COS-7 cells
Procedure: as §1

[7] = molecular target: T3, NgR1-Fc (mouse NogoR/Fc, R&D Systems) (mouse, UniProt Q99PI8 27-447); assay: affinity precipitation with NgR1-Fc on Protein A/G beads, anti-AP Western blot
T3 construct: also called soluble NgR1-Fc
T3 sequence (looked up): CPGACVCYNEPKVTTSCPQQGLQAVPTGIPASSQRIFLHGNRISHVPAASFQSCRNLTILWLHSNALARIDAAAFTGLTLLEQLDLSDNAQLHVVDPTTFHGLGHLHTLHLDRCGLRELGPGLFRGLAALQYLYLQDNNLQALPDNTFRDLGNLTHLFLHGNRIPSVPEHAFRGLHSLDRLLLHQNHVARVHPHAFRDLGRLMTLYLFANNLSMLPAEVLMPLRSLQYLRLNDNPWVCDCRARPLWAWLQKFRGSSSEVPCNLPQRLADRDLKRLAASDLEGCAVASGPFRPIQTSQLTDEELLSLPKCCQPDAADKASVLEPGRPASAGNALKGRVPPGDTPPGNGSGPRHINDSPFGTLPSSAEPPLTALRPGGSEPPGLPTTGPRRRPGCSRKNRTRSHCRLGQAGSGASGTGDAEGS
Procedure: NgR1-Fc (0.5 μg, R&D Systems) and AP-tagged ligands (1.5 nM final conc.) were mixed in DMEM containing 0.1% BSA and protease inhibitor cocktail and were incubated at 4° C. for 2 h. AP-ligands bound to NgR1-Fc were precipitated with Protein A/G agarose beads after 2 h at 4° C. Samples were rinsed extensively in washing buffer (20 mM Tris-HCl, pH 7.5, 150 mM NaCl, 1% NP40, 5 mM EDTA) and analyzed by Western blotting using an anti-AP antibody. For cross-linking experiments, NgR1-Fc, FGFR1D(IIIb)/Fc, TROY-Fc, or ephrinB3-Fc (R&D Systems) (each at 13 nM), were incubated with 40 nM ¹²⁵I-FGF2 (specific activity: ˜50 μCi/μg, MP Biochem.) with or without the indicated concentrations of cold FGF2 or insulin for 2 h at room temperature in PBS. Cross-linking was initiated by adding BS³ (bis[sulfosuccinimidyl]suberate, Pierce, Rockford, Ill.) to a final concentration of 2 mM and incubating for 30 min at room temperature. The reaction was stopped by adding 2 μl of 1 M Tris-HCl (pH 7.4) and protein complexes were analyzed by SDS-PAGE. Gels were subsequently fixed, dried, and subjected to autoradiography.

[8] = molecular target: B2; assay: AP-ligand binding to NgR2 on COS cells
Procedure: as §1

[9] = molecular target: B1; assay: AP-ligand binding to NgR1 on COS cells
Procedure: as §1

[10] = molecular target: B1; assay: AP-ligand binding to NgR1 on COS-7 cells
Procedure: as §1

T1 sequence (P05187 other isoform, or with tags, fused parts or gaps): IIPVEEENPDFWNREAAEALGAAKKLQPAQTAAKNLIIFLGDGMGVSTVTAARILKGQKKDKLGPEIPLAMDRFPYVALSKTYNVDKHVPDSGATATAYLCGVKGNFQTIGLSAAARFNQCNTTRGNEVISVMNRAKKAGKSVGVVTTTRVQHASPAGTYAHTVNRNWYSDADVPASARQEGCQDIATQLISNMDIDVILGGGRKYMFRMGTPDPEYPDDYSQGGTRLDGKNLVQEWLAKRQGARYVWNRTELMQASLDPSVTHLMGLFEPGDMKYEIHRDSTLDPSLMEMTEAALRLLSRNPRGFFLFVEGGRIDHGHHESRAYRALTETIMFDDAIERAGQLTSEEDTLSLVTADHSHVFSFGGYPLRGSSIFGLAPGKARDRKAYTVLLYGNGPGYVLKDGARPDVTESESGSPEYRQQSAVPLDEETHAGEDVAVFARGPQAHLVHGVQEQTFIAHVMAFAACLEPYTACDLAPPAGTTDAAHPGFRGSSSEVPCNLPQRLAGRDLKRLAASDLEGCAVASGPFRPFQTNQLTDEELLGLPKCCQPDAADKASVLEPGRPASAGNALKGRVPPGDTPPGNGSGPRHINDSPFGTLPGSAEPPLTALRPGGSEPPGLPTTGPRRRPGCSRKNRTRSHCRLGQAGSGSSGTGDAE

Binder: B1
binding result [1]: no binding | binding result (AP-FGF9 (mouse) [2]): no binding

Binder: B2
binding result [1]: no binding | binding result (AP-FGF9 (mouse) [3]): no binding

binding result [1]: no binding
B3: rat NgR3 expressed on COS-7 cells (receptor, UniProt Q80WD0 25-424, looked up)
chain: CPRDCVCYPSPMTVSCQAHNFAAIPEGIPEDSERIFLQNNHITFLQQGHFSPAMVTLWIYSNNITFIAPNTFEGFVHLEELDLGDNRQLRTLAPETFQGLVKLHALYLYKCGLSSLPAGIFGGLHSLQYLYLQDNHIEYLQDDIFVDLVNLSHLFLHGNKLWSLGQGIFRGLVNLDRLLLHENQLQWVHHKAFHDLHRLTTLFLFNNSLTELQGDCLAPLVALEFLRLNGNAWDCGCRARSLWEWLRRFRGSSSVVPCATPELRQGQDLKSLRVEDFRNCTGPASPHQIKSHTLSTSDRAARKEHHPSHGASRDKGHPHGHLPGSRSGSKKPGKNCTSHRNRNQISKGSAGKELPELQDYAPDYQHKFSFDIMPTARPKRKGKCARRTPIRAPSGVQQAS
notes: whole, on cells; also called NgR3 in COS cells

binding result [1]: no binding
B4: Nogo66-Npn1 (human Nogo66 fused to the transmembrane and cytoplasmic portion of rat neuropilin-1) on COS-7 cells (other, human;rat, UniProt Q9NQC3 1055-1120, looked up)
chain: RIYKGVIQAIQKSDEGHPFRAYLESEVAISEELVQKYSNSALGHVNCTIKELRRLFLVDDLVDSLKILITIIAMSALGVLLGAVCGVVLYCACWHNGMSERNLSALENYNFELVDGVKLKKDKLNPQSNYSEA
notes: domain: Nogo66;domain: transmembrane and cytoplasmic portion; Chimeric cell-surface form of Nogo66; also called Nogo66-Npn1 in COS cells

Kd [4]: ~10 nM | Kd [5]: 16.9 nM | binding result [6]: no binding | binding result [7]: binds
B5: AP-FGF2 (mouse), alkaline phosphatase tagged FGF2 (ligand, UniProt P15655 10-154, looked up)
chain: PALPEDGGAAFPPGHFKDPKRLYCKNGGFFLRIHPDGRVDGVREKSDPHVKLQLQAEERGVVSIKGVCANRYLAMKEDGRLLASKCVTEECFFFERLESNNYNTYRSRKYSSWYVALKRTGQYKLGSKTGPGQKAILFLPMSAKS
notes: also called bFGF; basic FGF; not shown: human placental alkaline phosphatase (AP) tag

binding result [8]: no binding | binding result [9]: binds
B6: AP-FGF4 (mouse) (ligand, UniProt P11403 30-202, looked up)
chain: APNGTRHAELGHGWDGLVARSLARLPVAAQPPQAAVRSGAGDYLLGLKRLRRLYCNVGIGFHLQVLPDGRIGGVHADTRDSLLELSPVQRGVVSIFGVASRFFVAMSSRGKLFGVPFFTDECKFKEILLPNNYNAYESYAYPGMFMALSKNGRTKKGNRVSPTMKVTHFLPRL
notes: not shown: human placental alkaline phosphatase (AP) tag

binding result [8]: no binding | binding result [10]: no binding
B7: AP-FGF21 (mouse) (ligand, UniProt Q9JJN1 29-210, looked up)
chain: AYPIPDSSPLLQFGGQVRQRYLYTDDDQDTEAHLEIREDGTVVGAAHRSPESLLELKALKPGVIQILGVKASRFLCQQPDGALYGSPHFDPEACSFRELLLEDGYNVYQSEAHGLPLRLPQKDSPNQDATSWGPVRFLPMPGLLHEPQDQAGFLPPEPPDVGSSDPLSMVEPLQGRSPSYAS
notes: as for B6

binding result [8]: no binding | binding result [10]: no binding
B8: AP-FGF8 (mouse) (ligand, UniProt P37237-2 23-215, looked up)
chain: QVTVQSSPNFTQHVREQSLVTDQLSRRLIRTYQLYSRTSGKHVQVLANKRINAMAEDGDPFAKLIVETDTFGSRVRVRGAETGLYICMNKKGKLIAKSNGKGKDCVFTEIVLENNYTALQNAKYEGWYMAFTRKGRPRKGSKTRQHQREVHFMKRLPRGHHTTEQSLRFEFLNYPPFTRSLRGSQRTWAPEPR
notes: also called FGF8b; not shown: human placental alkaline phosphatase (AP) tag
